{
  "source": "the RNAGym collection of RNA variant scans (doi:10.7554/elife.90254)",
  "parents": {"B1": {"name": "OR4K15 (parent)", "chain": "GUUAACGGUCAUAGGCCAUGGAAACUAGGAGCACCAUUUCGCUGCCAGUGAAGAAAUGAACAAAGAAAAUCUGGGCCAGGCAGGCAUCAAAAGAAAUAGUCUUGCGCUCAACCAGAAAGUCUGUAAUCAUUUUAAGGGUA"}},
  "data": [
    {"variants_of": "B1", "test": "self-cleavage, relative activity (ratio to wild type); higher = more cleavage; in vitro, sequencing; the parent is a self-cleaving ribozyme", "values": [
      {"variant": "GUUAACGGUCAUAGGCCAUGGAAACUAGGAGCACCAUUUCGCUGCCAGUGAAGAAAUGAACAAAGAAAAUCUGGGCCAGGCAGGCAUCAAAAGAAAUAGUCUUGAGCCCAACCAGAAAGUCUGUAAUCAUUUUAAGGGUA", "note": "[C105A U108C]", "self-cleavage": 0.01},
      {"variant": "GUUAACGGUCAUAGGCCAUGGAAACUAGGAGCACCAUUUCGCUGCCAGUGAAGAGAUGAACAAAGAAAAUCUGGGCCAGGCAGGCAUCAAAAGAAAUAGUCUUGCGCUCAACCGGAAAGUCUGUAAUCAUUUUAAGGGUA", "note": "[A55G A114G]", "self-cleavage": 0.32},
      {"variant": "GUUAACGGUCAUAGGCCAUGGAAACUAGGAGCACCAUUUCGCUGCCAGUGAAGAAAAGAACAAAGAAAAUCUGGGCCAGGCAGGCAUCAAAAGAAAUAGUCUUGCGCUCAACCAGAAAGUCUGUAAUCAAUUUAAGGGUA", "note": "[U57A U130A]", "self-cleavage": 0.77},
      {"variant": "GUUAACGGUCAUAGGCCAUGGAAACUAGGAGCACCAUUUCGCUGCCAGUGAAGAAAUGAACAAAGAAAGUCUGGGCCAGGCAGGCAUCAAAAGAAAUAGUCUUGCGCUCAACCCGAAAGUCUGUAAUCAUUUUAAGGGUA", "note": "[A69G A114C]", "self-cleavage": 0.01},
      {"variant": "GUUAACGGUCAUAGGCCAUGGAAACUAGGAGCACCAUUUCGCUGCCAGUGAAGAAAUGGACAAAGAAAAUCCGGGCCAGGCAGGCAUCAAAAGAAAUAGUCUUGCGCUCAACCAGAAAGUCUGUAAUCAUUUUAAGGGUA", "note": "[A59G U72C]", "self-cleavage": 0.23},
      {"variant": "GUUAAUGGUCAUAGGCCAUGGAAACUAGGAGCACCAUUUCGCUGCCAGUGAAGAAAUGAACAAAGAAAAUCUGGGCCAGGCAGGCAUCAAAAGAAAUAGUCUUGCGCUCGACCAGAAAGUCUGUAAUCAUUUUAAGGGUA", "note": "[C6U A110G]", "self-cleavage": 0.19},
      {"variant": "GUUAACGGUCAUAGGCCAUGGAAACUAGGAGCACCAUUUCGCUGCCAGUGAAGAAAUGAGCAAAGAAAAUCUGGGCCAGGCAGGCAUCAAAAGAAAUAGUCUUGCGCUCAACCAGAAAGUCAGUAAUCAUUUUAAGGGUA", "note": "[A60G U122A]", "self-cleavage": 1.41},
      {"variant": "GUUAACGGUCGUAGGCCAUGGAAACUAGGAGCACCAUUUCGCUGCCAGUGAAGAAAUGAACAAAGAAAAUCAGGGCCAGGCAGGCAUCAAAAGAAAUAGUCUUGCGCUCAACCAGAAAGUCUGUAAUCAUUUUAAGGGUA", "note": "[A11G U72A]", "self-cleavage": 0.38},
      {"variant": "GUUAACGGUCAUAGGCCAUGGAAACUAGGAGCAUCAUUUCGCUGCCAGUGAAGAAAUGAACAAAGAAAAUCUGGGCCAGGCAGGCAUCAAAAGAACUAGUCUUGCGCUCAACCAGAAAGUCUGUAAUCAUUUUAAGGGUA", "note": "[C34U A96C]", "self-cleavage": 0.19},
      {"variant": "GUUAACGGUCAUAGGCCAUGGUAACUAGGAGCACCAUUUCGCUGCCAGUGAAGAAAUGAACAAAGAAAAUCUGGGCCAGGCAGGCAUCAAAAGAAAUAGCCUUGCGCUCAACCAGAAAGUCUGUAAUCAUUUUAAGGGUA", "note": "[A22U U100C]", "self-cleavage": 2.44},
      {"variant": "GUUAACGGUCAUAGGCCAUGGAAACUAGGCGCACCAUUUCGCUGCCAGUGAAGAAAUGGACAAAGAAAAUCUGGGCCAGGCAGGCAUCAAAAGAAAUAGUCUUGCGCUCAACCAGAAAGUCUGUAAUCAUUUUAAGGGUA", "note": "[A30C A59G]", "self-cleavage": 0.35},
      {"variant": "GUUAACGGUCAUAGGCCAUGGAAACUAGGAGCACCAUUUCGCUGCCAGUGAAGAAAUGAACAACGAAAAUCUGGGCCAGGCAGGCAUCAAAAGAAAUAGUCUCGCGCUCAACCAGAAAGUCUGUAAUCAUUUUAAGGGUA", "note": "[A64C U103C]", "self-cleavage": 0.24},
      {"variant": "GUUAACGGUCAUAGGCCAUGGAAACUGGGAGCACCAUUUCGCUGCCAGUGAAGAAAUGAACAAAGAAAAUCUGGGCCAGGCAGGCAUCAAAAGAAAUAGUCUUGCGCUCAACCAGAAAGUCUGUAAUCAUUUUGAGGGUA", "note": "[A27G A134G]", "self-cleavage": 1.86},
      {"variant": "GUUAACGGUCAUAGGCCAUGGAAACUAGGAGCACCAUUUCGCUGCCAGUGAAGAAAUGAACAAAGAAAAACUGGGCCAGGCAGGCAUCAAAAGAAAUAGUCUUGCGCUCGACCAGAAAGUCUGUAAUCAUUUUAAGGGUA", "note": "[U70A A110G]", "self-cleavage": 0.1},
      {"variant": "GUUAACGGUCAUAGGCCAUGGAAACUAGGAGCACCAUUUCGCAGCCAGUGAAGAAAUGAACAAAGAAAAUCUGGGCCAGGCAGGCAUCAGAAGAAAUAGUCUUGCGCUCAACCAGAAAGUCUGUAAUCAUUUUAAGGGUA", "note": "[U43A A90G]", "self-cleavage": 0.76},
      {"variant": "GUUAACGGUCAUAGGCCAUGGAAACUAGGAGCACCAUUUCGCUGCCAGCGAAGAAAUGAACAAAGAAAAUCUGGGCCAGGCGGGCAUCAAAAGAAAUAGUCUUGCGCUCAACCAGAAAGUCUGUAAUCAUUUUAAGGGUA", "note": "[U49C A82G]", "self-cleavage": 0.42},
      {"variant": "GUUAACGGUCAUAGGCCAUGGAAACUAGGAGCACCAUUUCGCUGCCAGUGAUGAAAUGAACAAAGAAAAUCUGGGCCAGGCAGGCAUCAAAAGAAAUAGUCUUGCGCUCAACCAGAAAGUCUGUAAUCAUUCUAAGGGUA", "note": "[A52U U132C]", "self-cleavage": 1.06},
      {"variant": "GUUAACGGUCGUAGGCCAUGGAAACUAGGAGCACCAUUUCGCUGCCAGUGAAGAAAUGAACAAAGAAAAUCUGGGCCAGGCAGGCAUCAAAAAAAAUAGUCUUGCGCUCAACCAGAAAGUCUGUAAUCAUUUUAAGGGUA", "note": "[A11G G93A]", "self-cleavage": 2.04},
      {"variant": "GUUAACGGUCAUAGGCCAUGGAAACUAGGGGCACCAUUUCGCUGCCAGUGAAGAAAUGAACAAAGAAAAUCUGGGCCAGGCAGGCAUCAAAAGAAAUAGUCUUGCGCUCAACCAGAAAGUCUUUAAUCAUUUUAAGGGUA", "note": "[A30G G123U]", "self-cleavage": 0.53},
      {"variant": "GUUAACGGUCAUAGGCCAUGGAAACUAGGAGCACCAUUCCGCUGCCAGUGAAGAAAUGAACAAAGAAAAUCUGGGCAAGGCAGGCAUCAAAAGAAAUAGUCUUGCGCUCAACCAGAAAGUCUGUAAUCAUUUUAAGGGUA", "note": "[U39C C77A]", "self-cleavage": 0.77},
      {"variant": "GUUAACGGUCAUAGGCCAUGGAAACUAGGAGCACCAUUUCGCUGCCAGUGAAGAAAUGAACAAAGAAAACCUGGGCCAGGCAGGCAUCAAAAGAAAUAGUCUUGCGCUCAACCAGAAAGUCUGUAAUCUUUUUAAGGGUA", "note": "[U70C A129U]", "self-cleavage": 0.41}
    ]}
  ]
}
